Consider 3 molecules from patent US20070022485, “Method of preparing transgenic organism with use of methylation and system therefor” (Japan Science Techonology Agency, published 2007).

Data set [1] has as its system Tc3 transposase (pRP2302) (Caenorhabditis elegans). In words: cell_activity. As to conditions: 5mC at CpG; gene trap events in mouse ES cells.
Data set [2] concerns the target T1, SB transposase N123 (N-terminal 123 aa DNA-binding domain) (Sleeping Beauty (synthetic, …)).
T1 chain: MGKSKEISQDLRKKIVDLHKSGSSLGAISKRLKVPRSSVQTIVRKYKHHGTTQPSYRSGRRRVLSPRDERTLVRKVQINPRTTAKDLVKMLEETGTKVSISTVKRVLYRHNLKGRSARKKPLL
In words: EMSA; poly(dI-dC) 1 ug, 25 C, 30 min. The conditions noted are these: tags: C-terminal His6 (pET21d, E. coli); label: 32P 5'. The procedure: (§1) This oligonucleotide was first labeled with [γ-³²P]ATP using T4 polynucleotide kinase, and then annealed. DNA fragment of IR/DR-L was digested with HindIII and KpnI for the preparation, and thereafter, the fragment was methylated using SssI methylase or kept unmethylated and then the fragment was treated with an alkaline phosphatase. The digested fragment was extracted using phenol-chloroform, and precipitated with ethanol, and then finally, T4 polynucleotide was used to label with [γ-³²P]ATP. In the presence of poly(dI-dC) (1.0 μg), 0.2 pmol of oligonucleotide probe or 100 pg of IR/DR-L fragment, and 1.0 μl of N123, a nucleoprotein complex was formed in a buffer described previously in Ivics, Z., P. B. Hackett, R. H. Plasterk, and Z. Izsvak. 1997; Cell 91:501-510). After a thirty minute incubation at 25 degrees Celsius, samples were loaded on a 5%-native polyacrylamide gel, and electrophoresed at 150V constant voltage, and in 0.5× Tris-borate-EDTA, 1.5 hours for oligonucleotide probe and 2.5 hours for IR/DR-L fragment. After the gel was dried, the nucleoprotein was visualized by autoradiography.
(§2) In order to clarify the mechanism of transposition which has been enhanced by methylation of CpG, the present inventors have compared the affinity of recombinant SB transposase peptide against the methylated IR/DR and unmethylated IR/DR by EMSA. […]
Background: In EMSA bound probe runs differently from free probe, usually more slowly.

For data set [3], the target named is T1, SB transposase N123 (N-terminal 123 aa …). In words: EMSA; shift and competition comparable to unmethylated site; poly(dI-dC) 1 ug, 25 C. As to conditions: tags: C-terminal His6 (pET21d, E. coli); label: 32P 5'. Here is the method:
as §1, §2

“Tc3 transposon vector pTc3/SAβ-geo, CpG methylated” yielded a binding signal (fold vs unmethylated) in data set [1] of 2.

B1: IR/DR-L outer binding site, unmethylated 34 bp (dsDNA)
DNA 1: TACAGTTGAAGTCGGAAGTTTACATACACTTAAG
DNA 2: CTTAAGTGTATGTAAACTTCCGACTTCAACTGTA
Regarding B1, in data set [2], the binding result is “binds”.

B2: IR/DR-L outer binding site, methylated 34 bp (dsDNA)
DNA 1: B1 DNA 1
DNA 2: B1 DNA 2
modifications: 5mC at the CpG on both strands (n in SEQ:64 and SEQ:65)
Consider B2, for which the binding result in data set [3] is given as “binds”.
